Assay results taken from patent US20210269549A1, “ANTI-SAS1B ANTIBODIES, ASSOCIATED METHODS OF USE, AND COMPOSITIONS AND METHODS FOR DETECTING AND TREATING CANCER” (UNIVERSITY OF VIRGINIA PATENT FOUNDATION, priority 2015, published 2021).

T1: recombinant human SAS1B antigen (Homo sapiens, UniProt Q6HA08)
T1 sequence (Q6HA08 24-431): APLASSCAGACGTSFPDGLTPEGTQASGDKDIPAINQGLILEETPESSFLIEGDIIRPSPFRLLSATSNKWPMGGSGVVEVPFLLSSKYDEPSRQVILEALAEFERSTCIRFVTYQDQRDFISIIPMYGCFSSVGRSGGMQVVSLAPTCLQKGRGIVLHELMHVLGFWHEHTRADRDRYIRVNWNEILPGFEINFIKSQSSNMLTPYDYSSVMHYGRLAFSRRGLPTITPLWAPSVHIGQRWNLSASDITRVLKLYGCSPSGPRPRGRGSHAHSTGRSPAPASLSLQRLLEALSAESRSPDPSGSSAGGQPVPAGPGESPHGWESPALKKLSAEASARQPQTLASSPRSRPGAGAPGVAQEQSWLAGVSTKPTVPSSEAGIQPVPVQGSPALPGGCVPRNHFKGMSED

T2: mouse SAS1B (Mus musculus, UniProt Q6HA09)
T2 sequence (Q6HA09 24-435): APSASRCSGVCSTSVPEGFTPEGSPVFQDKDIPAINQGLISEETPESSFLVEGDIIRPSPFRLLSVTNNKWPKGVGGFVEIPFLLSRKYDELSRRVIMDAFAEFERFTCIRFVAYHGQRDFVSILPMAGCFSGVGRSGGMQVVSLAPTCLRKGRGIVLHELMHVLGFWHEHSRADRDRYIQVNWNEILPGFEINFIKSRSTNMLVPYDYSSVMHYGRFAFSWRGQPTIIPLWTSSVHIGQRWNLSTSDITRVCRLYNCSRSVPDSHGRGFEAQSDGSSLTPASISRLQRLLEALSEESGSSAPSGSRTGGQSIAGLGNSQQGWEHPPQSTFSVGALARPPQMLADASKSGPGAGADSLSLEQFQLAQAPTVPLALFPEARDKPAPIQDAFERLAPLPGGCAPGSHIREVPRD


Key:
[1] = system: human pancreatic cancer cell MPanc96; test: ADC cytotoxicity assay (total cellular ATP), MPanc96; format: cell-based; settings: 0.1 nM mAb, Fab-DMDM constant at 15 nM, ~72 hours
Experimental: The cytotoxic effect of anti-human SAS1B mAbs SB2, SB4, SB5 on human pancreatic cancer cell MPanc96 was determined by ADC assay. Human pancreatic cancer cells MPanc96 were seeded in triplicate on 96 well plates (1100 cells per well) overnight and then treated with SB2, SB4, SB5, and […] (anti-CABYR) and anti-mouse Fab-cleavable-Duocarmycin complex for ˜72 hours. The presence of viable live cells per well was measured by total cellular ATP content in relative luminescence unit (RLU). […] The anti-SAS1B mAbs SB2, SB4, and SB5 killed 80%, 64%, 57% of cells, respectively, at 1 nM concentration when Fab-DMDM was kept constant at 15 nM for all primary antibody dilutions. SB2 killed 67% of cells at 0.1 nM concentration. […] Staurosporine, a general protein kinase inhibitor, which induces apoptosis, was used as a positive control and DMSO was used as a negative control. The data are shown in FIG. 7A-B and represent an average of triplicate experiments.

[2] = target: T1, recombinant human SAS1B antigen; test: Capture assay by sandwich ELISA; format: binding; settings: SB2 coupled to magnetic beads, SB5 coupled to HRP as detection agent, 96 well ELISA format
From the text: The antibodies were used to develop a capture assay by sandwich ELISA. The support was a magnetic bead (MB) coupled to SB2, SB3, SB4, or SB5 mAbs. The antigen was a recombinant human SAS1B antigen. Detection was accomplished with mAbs SB2, SB3, SB4, SB5 conjugated with HRP. A HRP substrate was used and TMB was used for quantitation.
The retention of HRP activity after conjugations to SASB1 SB2, SB3, SB4, SB5, and anti-CABYR monoclonal antibody 3A4 was examined. The assay method detected 0.2 femtomole of IgGs. Where SB2 is coupled to magnetic beads and SB5 coupled to HRP is used as a detection agent in a 96 well ELISA format 2.7 pmole/ml of rhSAS1B can be detected.

renal carcinoma cells = test: ADC assay on renal carcinoma cells; format: cell-based; settings: 15 nM Fab-DMDM, 4 days
Experimental: The cytotoxic effect of anti-EGFR (AY13), anti-SAS1B (SB2) and anti-CABYR (3A4) monoclonal antibodies on renal carcinoma cells were tested by ADC assay. An average of 3 experiments in triplicate is reported.

[3] = system: uterine cancer cell line (MMMT539); test: Morphology of uterine cancer cells after 93 h of anti-SAS1B antibody drug treatment; format: cell-based, human; settings: 0.1 nM mAb with 15 nM Fab-DMDM
Experimental: The morphology of uterine cancer cell line (SNU539) and uterine cancer cell line (MMMT539) after 93 h of anti-SAS1B antibody drug treatment were examined.

[4] = system: human uterine cancer cells (MMMT539); test: Antibody drug conjugate cytotoxicity (ADC) assay, MMMT539; format: cell-based; settings: 0.1 nM mAb, Fab-DMDM constant at 15 nM, ~90 h
Experimental: The cytotoxic effect of anti-human SAS1B mAbs SB2 and SB5 on human uterine cancer cells (MMMT539) was examined by antibody drug conjugate cytotoxicity (ADC) assay. Human uterine cancer cells MMMT539 were seeded in triplicate on 96 well plate overnight and then treated with SB2 or SB5 and anti-mouse Fab-cleavable-Duocarmycin complex for ˜90 h. The presence of viable live cells per well was measured by total cellular ATP content in relative luminescence unit (RLU). Viability of control live cells (100%) was determined from average of 9 wells in terms of total cellular ATP (in RLU) containing the constant 15 nM Fab-CL-DMDM for each set of antibody/reagent. […] Staurosporine, a general protein kinase inhibitor, was used to induce apoptosis in 1% DMSO as a positive control for the assay.

SAS1B+ tumor cell lines = test: Confocal immunofluorescence microscopy on live cells (FIG. 25); format: cell-based
From the text: Bioassays to select therapeutic and diagnostic mAbs have focused on two strategies: 1) identification of mAbs reactive with recombinant SAS1B, endogenous SAS1B, and with SAS1B accessible on cell surfaces; and 2) mAbs that recognize epitopes preserved in formalin fixed paraffin embedded sections that work as immuno-cytochemical probes. […] These transfected cells provide one effective screening tool to identify mAbs reactive with native epitopes on SAS1B. Another screening assay is to study SAS1B+ tumor cell lines by immunofluorescence microscopy and FACS. mAbs that recognize SAS1B at the surface of live cells and gate specific cell populations by FACS have been isolated. […] Efforts to identify mAbs that localize SAS1B in fixed embedded sections have also yielded reagents of utility for histopathology. […] Thus the non-human primate ovary can be used as a positive control tissue for studying the histopathology of tumor specimens with these reagents.

mouse SAS1B = target: T2, mouse SAS1B; test: Western blot of mouse SAS1B probed with anti-human SAS1B murine mAbs; format: binding; settings: Table 1
From the text: A western blot of human SAS1B and mouse SAS1B was probed with anti-human SAS1B murine monoclonal antibodies SB1, SB2, SB3, SB4, SB5, SB6, and SB7.

rhSAS1B that can be detected [2] [pmol/mL] | Specifically binds mouse and human SAS1B (mouse SAS1B) | Molecule | Cells killed [1] [%] | Cytotoxic effect (renal carcinoma cells) | Cell killing and inhibition of cell proliferation (morphology) [3] | Cancer cells killed [4] [%] | Binding of SAS1B on live cells (SAS1B+ tumor cell lines)
2.7 |  | SB2: mouse anti-human SAS1B monoclonal antibody, IgG2b; VH SEQ ID NO:14, VL SEQ ID NO:15 (antibody, listed as Mus musculus, V domains shown) VH: EVQLQQSGPELVKPGSSVKISCKASGYTFTDYNMVWVKQSHGKSLEWIGAVNPNNGGTSYNQKFKGKATLTVDKSSSTAYMELRSLTSEDSAVYYCVPNWDWFAYWGQGTLVTVSA VL: DVLMTQTPLSLPVSLGDQASISCRSSQSLVHSNGNTYLEWYLQKPGQSPNLLIYKVSNRFSGVPDRFSGSGSGTDFTLKISRVEAEDLGVYYCFQGSHVPFTFGSGTKLEIK | 67 | cytotoxic effect at 0.01, 0.1 nM and higher concentrations | clear cell killing and inhibition of cell proliferation | 87 | bind SAS1B on live cells
2.7 |  | SB5: mouse anti-human SAS1B monoclonal antibody, IgG2b; VH SEQ ID NO:16, VL SEQ ID NO:18 (antibody, listed as Mus musculus, V domains shown) VH: EVQLQQSGPELVKPGSSVKISCKPSGYTFTDYNMVWMKQSHGKSLEWIGAINPNNGGTTYNQKFKGKATLTVDKSSSTAYMELRSLTSEDSAVYYCAPNWDWFAYWGQGTLVTVSA VL: DVLMTQIPLSLPVSLGDQASISCRSSQSILHSNGNTYLEWYLQKPGQSPKLLIYKVSNRFSGVPDRFSGSGSGTDFTLKISRVEAEDLGVYYCFQGSHVPFTFGSGTKLEIK |  |  | clear cell killing and inhibition of cell proliferation | 75 | 
 | Yes | SB1: mouse anti-SAS1B monoclonal antibody, IgG2a; VH SEQ ID NO:12, VL SEQ ID NO:13 (antibody, listed as Mus musculus, V domains shown) VH: EVQLQQSGPELVKPGSSVKISCKASGYTFTDYNMDWVKQSHGKSLEWIGAINPNNGGTSYNQKFKGKATLTVDKSSSTAYMELRSLTSEDSAVYYCATNEYWGQGTTLTVSS VL: NIVMTQSPKSMSMSVGERVTLSCKASENVGTYVSWYQQKPEQSPKLLIYGASNRYTGVPDRFTGSGSATDFTLTISSVQAEDLADYHCGQSYSYPWTFGGGTKLEIK |  |  |  |  | 
